Our source for the IC50 values is patent US20040259172A1.

Numbered stars: 1 amine (or outer) side, 2 acyl side, 3 side chain; on linkers, the order of the positions; unused ones are H or OH. Square brackets hold non-standard residues; d marks the D form. Ends that are not written are not given here. βAsp = O=C(O)[C@H](CC(=O)[*:2])N[*:1]

This test deals with mouse-anti-β-COMP sera (polyclonal antiserum specific for the human COMP derived sequence AQEDβSDH). Description: competitive ELISA: free peptide competes with biotinylated β-COMP on streptavidin plates for the mouse anti-β-COMP serum. (An ELISA detects its analyte on a solid surface through an enzyme-linked reagent.)

The term IC50 denotes the concentration at which inhibition is half-maximal. A higher IC50 goes with lower potency.

Take AQEDSDH [α-COMP peptide (non-isomerised (α) form of the COMP peptide)]: the IC50 amounted to 0.435 µg/mL.

AQE[βAsp]SDH: the IC50 worked out at 0.038 µg/mL.
